B1: stapled M2-2 peptide (peptide)
peptide: WVAQLLR[S5]IGD[S5]VN-NH2
modifications: staple 8-12; N-terminus assumed
SMILES: CC[C@H](C)[C@@H]1NC(=O)[C@@](C)(NC(=O)[C@H](CCCNC(=N)N)NC(=O)[C@H](CC(C)C)NC(=O)[C@H](CC(C)C)NC(=O)[C@H](CCC(N)=O)NC(=O)[C@H](C)NC(=O)[C@@H](NC(=O)[C@@H](N)Cc2c[nH]c3ccccc23)C(C)C)CCCC=CCCC[C@@](C)(C(=O)N[C@H](C(=O)N[C@@H](CC(N)=O)C(N)=O)C(C)C)NC(=O)[C@H](CC(=O)O)NC(=O)CNC1=O
B2: stapled M2-4 peptide (peptide)
peptide: WLAQLLR[S5]IGD[S5]IN-NH2
modifications: staple 8-12; N-terminus assumed
SMILES: CC[C@H](C)[C@@H]1NC(=O)[C@@](C)(NC(=O)[C@H](CCCNC(=N)N)NC(=O)[C@H](CC(C)C)NC(=O)[C@H](CC(C)C)NC(=O)[C@H](CCC(N)=O)NC(=O)[C@H](C)NC(=O)[C@H](CC(C)C)NC(=O)[C@@H](N)Cc2c[nH]c3ccccc23)CCCC=CCCC[C@@](C)(C(=O)N[C@H](C(=O)N[C@@H](CC(N)=O)C(N)=O)[C@@H](C)CC)NC(=O)[C@H](CC(=O)O)NC(=O)CNC1=O
B3: Bim BH3 14-mer variant X2-8 displayed on eCPX (peptide)
peptide: WLAQLLRRYGDEFN
modifications: also: displayed as fusion to eCPX scaffold (letters not given here)
notes: Clone selected against Bcl-xL; not shown: eCPX display scaffold and the linker to it
B4: Bim BH3 14-mer variant X2-3 displayed on eCPX (peptide)
peptide: WVAQWLRRWGDEFN
modifications: also: displayed as fusion to eCPX scaffold (letters not given here)
notes: as for B3
B5: Bim BH3 14-mer variant X2-10 displayed on eCPX (peptide)
peptide: WVAQTLRRWGDEFN-{linker-eCPX}
modifications: reading uncertain; also: printed as Trp-Val-Ala-Gln-Thr-Leu-Arg-Arg-Trp-Gly-Asp-Glu-Phe-Asn
notes: Clone selected against Bcl-xL; not shown: eCPX display scaffold and its linker, fused C-terminal to the peptide
B6: wild-type Bim BH3 14-mer peptide (residues 147-160) displayed on eCPX (peptide)
peptide: WIAQELRRIGDEFN-{linker-eCPX}
modifications: reading uncertain
notes: also called WT; Bim WT; not shown: eCPX (enhanced circularly permuted OmpX) display scaffold and its linker, fused C-terminal to the peptide
B7: Bim BH3 14-mer variant M2-4 displayed on eCPX (peptide)
peptide: WLAQLLRRIGDEIN-{linker-eCPX}
modifications: reading uncertain; also: printed as Trp-Leu-Ala-Gln-Leu-Leu-Arg-Arg-Ile-Gly-Asp-Glu-Ile-Asn
notes: Clone selected against Mcl-1; not shown: eCPX display scaffold and its linker, fused C-terminal to the peptide
B8: Bim BH3 14-mer variant M2-3 displayed on eCPX (peptide)
peptide: WMAQILRRIGDEVN-{linker-eCPX}
modifications: reading uncertain; also: printed as Trp-Met-Ala-Gln-Ile-Leu-Arg-Arg-Ile-Gly-Asp-Glu-Val-Asn
notes: as for B7
B9: Bim BH3 14-mer variant M2-2 displayed on eCPX (peptide)
peptide: WVAQLLRRIGDEVN-{linker-eCPX}
modifications: reading uncertain; also: printed as Trp-Val-Ala-Gln-Leu-Leu-Arg-Arg-Ile-Gly-Asp-Glu-Val-Asn
notes: as for B7
B10: Bim BH3 14-mer variant M2-1 displayed on eCPX (peptide)
peptide: WIAQLLRRIGDEVN-{linker-eCPX}
modifications: reading uncertain; also: printed as Trp-Ile-Ala-Gln-Leu-Leu-Arg-Arg-Ile-Gly-Asp-Glu-Val-Asn
notes: as for B7
B11: Bim BH3 14-mer E151Q (pseudo-wild-type) displayed on eCPX (peptide)
peptide: WIAQQLRRIGDEFN
modifications: not fully specified
notes: also called pseudo-wild-type Bim; Bim E151Q; not shown: eCPX display scaffold and the linker to it
B12: Bim BH3 14-mer E151L displayed on eCPX (peptide)
peptide: WIAQLLRRIGDEFN
notes: also called Bim E151L; pSZ55; not shown: eCPX display scaffold and the linker to it
B13: Bim BH3 14-mer E151I displayed on eCPX (peptide)
peptide: WIAQILRRIGDEFN
notes: also called E1511; Bim E151I; not shown: eCPX display scaffold and the linker to it

Bridges are numbered along the chain shown (N, C = ends). Where no end group is shown, it is not given here. [ ]: non-standard residue; d: D form. eCPX = enhanced circularly permuted OmpX display scaffold; S5 = C=CCCC[C@](C)(N)C(=O)O; linker = not defined here

T2 sequence (Q07817 1-209): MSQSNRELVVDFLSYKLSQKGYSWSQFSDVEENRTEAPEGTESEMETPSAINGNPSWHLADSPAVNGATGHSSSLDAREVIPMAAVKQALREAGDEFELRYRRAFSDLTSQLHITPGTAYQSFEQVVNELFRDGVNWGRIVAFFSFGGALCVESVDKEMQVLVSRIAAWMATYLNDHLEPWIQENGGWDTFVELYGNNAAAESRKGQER
Sequence of Bcl-2 (biotinylated pro-survival Bcl-2 family protein) (P10415 1-217 limits assumed): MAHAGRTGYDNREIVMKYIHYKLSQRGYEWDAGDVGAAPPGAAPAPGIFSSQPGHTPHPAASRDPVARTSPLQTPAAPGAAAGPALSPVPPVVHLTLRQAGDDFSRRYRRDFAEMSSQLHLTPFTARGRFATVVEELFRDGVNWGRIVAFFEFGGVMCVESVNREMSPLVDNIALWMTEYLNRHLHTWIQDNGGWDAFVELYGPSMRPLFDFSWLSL
T1 sequence (Q07820 171-327 limits assumed): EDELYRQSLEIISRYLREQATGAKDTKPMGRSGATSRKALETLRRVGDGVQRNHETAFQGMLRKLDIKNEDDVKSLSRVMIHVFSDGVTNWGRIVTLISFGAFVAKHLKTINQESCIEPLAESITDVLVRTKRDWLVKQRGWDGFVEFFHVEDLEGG

One assay addresses T1, Mcl-1 (biotinylated pro-survival Bcl-2 family protein) (UniProt Q07820 171-327, limits assumed, biotinylated (co-expressed E. coli biotin ligase BirA)). The experiment in a line: cell-based or functional assay.
As to B1, the “IC50 (µM), MTT cytotoxicity assay, MCF7 cells” value is 5.7 µM.
B2: the “IC50 (µM), MTT cytotoxicity assay, MCF7 cells” value stood at 5.7 µM.

A further assay concerns the target T2, Bcl-xL (biotinylated pro-survival Bcl-2 family protein) (UniProt Q07817 1-209, biotinylated (co-expressed E. coli biotin ligase BirA)). The experiment in a line: flow cytometry of E. coli displaying the peptide on eCPX, biotinylated target + streptavidin-PE; apparent Kd. The method, then:
(§1) All binding assays were performed using MC1061 strain. Briefly, a 5 mL culture of a library sample or individual variant was grown to OD₆₀₀˜0.6, and induced with arabinose (0.2%) at RT for 2.5 hours. Cells were pelleted (1 mL culture, 6000 rpm, 5 min) and resuspended in 1 mL PBS. A portion of the cell suspension (50 μL) was mixed with the desired concentration of pro-survival protein to a total volume of 500 μL. The mixture was allowed to rotate at room temperature for 1 hour for equilibrium binding. The cells were pelleted again (6000 rpm, 20 min), resuspended with 100 μL of 50 nM streptavidin-phycoerythrin (SAPE), and incubated on ice in the dark for 30 min. After a final centrifugation, the cell pellets were stored on ice and resuspended in 2 mL of PBS for flow cytometry measurements. A Partec CyFlow ML Flow Cytometer equipped with a 488 nm laser was used to analyze the cells. A FACSVantage SE cell sorter was used for cell sorting in single cell mode.
(§2) A two parameter model was used to extract apparent binding affinity (Kd) from flow cytometry binding experiments.
On to B3, for which the Kd worked out at 17.8 nM.
Turning to B4, the Kd turned out to be 9.28 nM.
As to B5, the Kd was 17 nM.
On the same count and under the same terms, the value for B6 was 251 nM.

Another assay has as its target T1, Mcl-1 (biotinylated pro-survival Bcl-2 …). The assay is described as above. As for the experimental part: as §1, §2
On to B7, for which the Kd was 9.85 nM.
B8: the Kd worked out at 11.5 nM.
For the molecule B6, the Kd turned out to be 37.7 nM.
As to B9, the Kd is 5.8 nM.
On the same count and under the same terms, the value for B10 was 10.3 nM.

For a further assay the target is unchanged. Briefly: cell-based or functional assay. The source holds these as a separate data set.
As to B1, the “IC50 (µM), MTT cytotoxicity assay, PC3 cells” value was determined as 4.7 µM.
For B2, the “IC50 (µM), MTT cytotoxicity assay, PC3 cells” value was found to be 1.4 µM.

In a further assay the target is T2, Bcl-xL (biotinylated pro-survival Bcl-2 …). Briefly: apparent Kd, bacterial surface display and flow cytometry. As for the experimental part:
as §1, §2
For orientation: A flow cytometer gives signals particle by particle.
On to B4, for which the “fold increase in apparent affinity against wild-type Bim 14-mer” value worked out at 25 fold.
Still for that read-out and setting: the value for B11 was 5 fold.

The next assay addresses T1, Mcl-1 (biotinylated pro-survival Bcl-2 …). The description is as above. The method, then:
as §1, §2
Regarding B9, the “fold increase in apparent affinity against wild-type Bim 14-mer” value was found to be 6 fold.
Same read-out and setting: as for B12, the figure is 2 fold; as for B13, 2 fold.

Another assay has the same target. The experiment in a line: cell-based or functional assay. The source holds these as a separate data set.
With B1, the “IC50 (µM), MTT cytotoxicity assay, MDA231 cells” value amounted to 3.7 µM.
Still for that read-out and setting: as for B2, the figure is 4.4 µM.

Another assay addresses Bcl-2 (biotinylated pro-survival Bcl-2 family protein) (UniProt P10415 1-217, limits assumed, biotinylated (co-expressed E. coli biotin ligase BirA)). The experiment in a line: flow cytometry of E. coli displaying the peptide on eCPX, biotinylated target + streptavidin-PE; apparent Kd. As for the experimental part: as §1, §2
Regarding B3, the Kd is 2350 nM.
For the molecule B7, the Kd was found to be 93.7 nM.
As to B4, the Kd was found to be 929 nM.
B6: the Kd was 97.9 nM.
Same read-out and setting: the value for B11 was 175 nM.

Another assay concerns the target T2, Bcl-xL (biotinylated pro-survival Bcl-2 …). The assay is described as above. This is another data set of the same source. As for the experimental part:
as §1, §2
For B3, the Kd turned out to be 17.8 nM.
For B7, the Kd was determined as 333 nM.
Same read-out and setting: the value for B4 was 9.28 nM.
For the molecule B6, the Kd was determined as 251 nM.
Regarding B9, the Kd worked out at 2800 nM.
B11: the Kd worked out at 47.4 nM.

The next assay has as its target T3, Bcl-w (biotinylated pro-survival Bcl-2 family protein) (UniProt Q92843 1-164, limits assumed, biotinylated (co-expressed E. coli biotin ligase BirA)).
T3 sequence (looked up): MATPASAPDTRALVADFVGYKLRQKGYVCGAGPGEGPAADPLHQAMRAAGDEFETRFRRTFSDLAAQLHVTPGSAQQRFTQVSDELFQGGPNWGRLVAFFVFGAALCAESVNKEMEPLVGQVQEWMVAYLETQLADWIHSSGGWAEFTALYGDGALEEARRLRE
The assay is described as above. As for the experimental part:
as §1, §2
With B3, the Kd is 946 nM.
Still for that read-out and setting: as for B7, the figure is 542 nM; as for B4, 5890 nM.
In the case of B6, the Kd came out at 594 nM.
In the case of B11, the Kd was 642 nM.

Another assay deals with T1, Mcl-1 (biotinylated pro-survival Bcl-2 …). Described as above. The source holds these as a separate data set. As for the experimental part:
as §1, §2
On to B3, for which the Kd was determined as 2580 nM.
On the same count and under the same terms, the value for B7 was 9.85 nM; that for B4 was 1300 nM.
For the molecule B6, the Kd amounted to 37.7 nM.
Consider B9, for which the Kd worked out at 5.8 nM.
As for B11, the Kd worked out at 45.2 nM.

A further assay has the same target. Briefly: cell-based or functional assay. The source holds these as a separate data set.
In the case of B1, the “IC50 (µM), MTT cytotoxicity assay, HeLa cells” value turned out to be 6.1 µM.
On the same count and under the same terms, as for B2, the figure is 1 µM.

Another assay has the same target. Briefly: cell-based or functional assay. This is another data set of the same source.
Take B2: the “IC50 (µM), cytotoxicity, HeLa cells” value was determined as 1.04 µM; the “IC50 (µM), cytotoxicity, MCF7 cells” value was 5.72 µM; the “IC50 (µM), cytotoxicity, MDA231 cells” value was determined as 4.39 µM; the “IC50 (µM), cytotoxicity, PC3 cells” value was found to be 1.36 µM.
